Data reported in article PMC4385932, “A transgenic mouse model to inducibly target prosurvival Bcl2 proteins with selective BH3 peptides in vivo” (Cell Death & Disease, 2015).

Molecular target: T1, Bcl-xL (UniProt Q07817-1 1-233)
T1 construct: Bcl-xL, prosurvival Bcl-2 family protein
Experiment: SPR; no format or conditions told

T1 sequence (Q07817 whole entry): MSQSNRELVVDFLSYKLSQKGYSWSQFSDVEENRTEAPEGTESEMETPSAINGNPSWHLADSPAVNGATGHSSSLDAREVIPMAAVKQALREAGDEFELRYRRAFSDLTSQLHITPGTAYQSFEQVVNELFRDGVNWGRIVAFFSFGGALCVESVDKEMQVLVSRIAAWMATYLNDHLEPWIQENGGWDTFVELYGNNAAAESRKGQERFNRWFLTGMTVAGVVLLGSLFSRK

| Kd [nM] | Binder |
| --- | --- |
| 8.5 | BimSBad^mut (BimSBad with the Bad BH3 residue F121 mutated to alanine) (ligand, N-terminal FLAG tag left out. Same conventional swap limits and species assumption as m1.) MAKQPSDVSSECDREGRQLQPAERPPQLRPGAPTSLQTEPQASMRQAEPANLWAAQRYGRELRRMSDEAVDSFKKGVFLNNYQAAEDHPRMVILRLLRYIVRLVWRMH |
| < 0.2 | BimSBad (BimS BH3-only protein in which the native BH3 sequence is replaced by the BH3 domain of Bad) (ligand, N-terminal FLAG tag left out. BimS = BimEL lacking 42-131. Swap limits are only in Figure 1a; the conventional 26-mer exchange is used (Bim 141-166, which is BimS 51-76, replaced by Bad 103-128). The) MAKQPSDVSSECDREGRQLQPAERPPQLRPGAPTSLQTEPQASMRQAEPANLWAAQRYGRELRRMSDEFVDSFKKGVFLNNYQAAEDHPRMVILRLLRYIVRLVWRMH |
